Reference: patent publication US7919276
Where a chain is given by its changes, count along the chain named. Like-named read-outs stand apart in the source and are kept apart here. Ends that are not written are not given here.

T1: lysine-acetylated histone H4 peptide SGRGKGG-AcK-GLGK
T1 chain: SGRGKGGKGLGK

T2: lysine-acetylated histone H4 peptide SGRGKGG-AcK-GLGK
T2 construct: also called H4 AcK-Peptide; AcK peptide
T2 peptide: SGRGKGGK(Ac)GLGK

T3: lysine-acetylated histone H4 peptide SGRGKGG-AcK-GLGK
T3 construct: also called AcK peptide; AcK-containing H4 peptide
T3 peptide: SGRGKGGK(Ac)GLGK

B1: P/CAF bromodomain Tyr802Ala mutant, Q92831 719-832 (protein)
chain: SKEPRDPDQLYSTLKSILQQVKSHQSAWPFMEPVKRTEAPGYYEVIRFPMDLKTMSERLKNRYYVSKKLFMADLQRVFTNCKEANAAESEYYKCANILEKFFFSKIKEAGLIDK
modifications: here or on the partner: acetyl-lysine (AcK) at Lys8
B2: P/CAF bromodomain (residues 719-832 of human p300/CBP-associated factor), wild-type (other)
chain: B1 chain with A84Y
notes: Expressed in E. coli with an N-terminal poly-His tag that thrombin removed; residues left over from the vector are not described; 15N-labelled for the NMR titration; also called hsp/CAF bromodomain; bromodomain of P/CAF
B3: P/CAF bromodomain Tyr760Ala mutant, Q92831 719-832 (protein)
chain: B1 chain with Y42A, A84Y
modifications: here or on the partner: acetyl-lysine (AcK) at Lys8
B4: P/CAF bromodomain Val752Ala mutant, Q92831 719-832 (protein)
chain: B1 chain with V34A, A84Y
modifications: here or on the partner: acetyl-lysine (AcK) at Lys8
B5: P/CAF bromodomain Tyr809Ala mutant (other)
chain: B1 chain with A84Y, Y91A
notes: Made by site-directed mutagenesis of the wild-type bromodomain construct
B6: P/CAF bromodomain Tyr809Ala mutant (other)
chain: B1 chain with A84Y, Y91A
notes: Point mutant of the P/CAF bromodomain made by site-directed mutagenesis

Assays:
[1] = target: T1, lysine-acetylated histone H4 peptide …; assay: NMR titration, 15N-HSQC chemical shift changes against ligand concentration; details: remark: other sources report otherwise
[2] = target: T2, lysine-acetylated histone H4 peptide …; assay: as above
[3] = target: T3, lysine-acetylated histone H4 peptide …; assay: NMR titration, 15N-HSQC
[4] = target: T2, lysine-acetylated histone H4 peptide …; assay: NMR titration, 15N-HSQC chemical shift changes

Binder | Kd [1] [mM] | further results
B1 | > 10 | –
B2 | – | Kd [2]: 0.346 mM
B3 | > 10 | –
B4 | > 10 | –
B5 | – | binding result [3]: no binding
B6 | – | binding result [4]: no binding
